B1: AfUGMY104A (UDP-galactopyranose mutase from Aspergillus fumigatus, Y104A on the K344A/K345A background) (enzyme)
chain: MTHPDISVDVLVIGAGPTGLGAAKRLNQIDGPSWMIVDSNETPGGLASTDVTPEGFLYDVGGHVIFSHYKYFDDCLDEALPKEDDWYTHQRISYVRCQGQWVPAPFQNNISMLPKEEQVKCIDGMIDAALEARVANTKPKTFDEWIVRMMGTGIADLFMRPYNFKVWAVPTTKMQCAWLGERVAAPNLKAVTTNVILGKTAGNWGPNATFRFPARGGTGGIWIAVANTLPKEKTRFGEKGKVTKVNANNKTVTLQDGTTIGYKKLVSTMAVDFLAEAMNDQELVGLTKQLFYSSTHVIGVGVRGSRPERIGDKCWLYFPEDNCPFYRATIFSNYSPYNQPEASAALPTMQLADGSRPQSTEAKEGPYWSIMLEVSESSMKPVNQETILADCIQGLVNTEMLKPTDEIVSTYHRRFDHGYPTPTLEREGALTQILPKLQDKDIWSRGRFGSWRYEVGNQDHSFMLGVEAVDNIVNGAVELTLNYPDFVNGRQNTERRLVDGAQVFAKSKAQ
B2: AfUGMY317A (UDP-galactopyranose mutase from Aspergillus fumigatus, Y317A on the K344A/K345A background) (enzyme)
chain: MTHPDISVDVLVIGAGPTGLGAAKRLNQIDGPSWMIVDSNETPGGLASTDVTPEGFLYDVGGHVIFSHYKYFDDCLDEALPKEDDWYTHQRISYVRCQGQWVPYPFQNNISMLPKEEQVKCIDGMIDAALEARVANTKPKTFDEWIVRMMGTGIADLFMRPYNFKVWAVPTTKMQCAWLGERVAAPNLKAVTTNVILGKTAGNWGPNATFRFPARGGTGGIWIAVANTLPKEKTRFGEKGKVTKVNANNKTVTLQDGTTIGYKKLVSTMAVDFLAEAMNDQELVGLTKQLFYSSTHVIGVGVRGSRPERIGDKCWLAFPEDNCPFYRATIFSNYSPYNQPEASAALPTMQLADGSRPQSTEAKEGPYWSIMLEVSESSMKPVNQETILADCIQGLVNTEMLKPTDEIVSTYHRRFDHGYPTPTLEREGALTQILPKLQDKDIWSRGRFGSWRYEVGNQDHSFMLGVEAVDNIVNGAVELTLNYPDFVNGRQNTERRLVDGAQVFAKSKAQ
B3: AfUGMQ107A (UDP-galactopyranose mutase from Aspergillus fumigatus, Q107A on the K344A/K345A background) (enzyme)
chain: MTHPDISVDVLVIGAGPTGLGAAKRLNQIDGPSWMIVDSNETPGGLASTDVTPEGFLYDVGGHVIFSHYKYFDDCLDEALPKEDDWYTHQRISYVRCQGQWVPYPFANNISMLPKEEQVKCIDGMIDAALEARVANTKPKTFDEWIVRMMGTGIADLFMRPYNFKVWAVPTTKMQCAWLGERVAAPNLKAVTTNVILGKTAGNWGPNATFRFPARGGTGGIWIAVANTLPKEKTRFGEKGKVTKVNANNKTVTLQDGTTIGYKKLVSTMAVDFLAEAMNDQELVGLTKQLFYSSTHVIGVGVRGSRPERIGDKCWLYFPEDNCPFYRATIFSNYSPYNQPEASAALPTMQLADGSRPQSTEAKEGPYWSIMLEVSESSMKPVNQETILADCIQGLVNTEMLKPTDEIVSTYHRRFDHGYPTPTLEREGALTQILPKLQDKDIWSRGRFGSWRYEVGNQDHSFMLGVEAVDNIVNGAVELTLNYPDFVNGRQNTERRLVDGAQVFAKSKAQ
B4: AfUGMN207A (UDP-galactopyranose mutase from Aspergillus fumigatus, N207A on the K344A/K345A background) (enzyme)
chain: MTHPDISVDVLVIGAGPTGLGAAKRLNQIDGPSWMIVDSNETPGGLASTDVTPEGFLYDVGGHVIFSHYKYFDDCLDEALPKEDDWYTHQRISYVRCQGQWVPYPFQNNISMLPKEEQVKCIDGMIDAALEARVANTKPKTFDEWIVRMMGTGIADLFMRPYNFKVWAVPTTKMQCAWLGERVAAPNLKAVTTNVILGKTAGNWGPAATFRFPARGGTGGIWIAVANTLPKEKTRFGEKGKVTKVNANNKTVTLQDGTTIGYKKLVSTMAVDFLAEAMNDQELVGLTKQLFYSSTHVIGVGVRGSRPERIGDKCWLYFPEDNCPFYRATIFSNYSPYNQPEASAALPTMQLADGSRPQSTEAKEGPYWSIMLEVSESSMKPVNQETILADCIQGLVNTEMLKPTDEIVSTYHRRFDHGYPTPTLEREGALTQILPKLQDKDIWSRGRFGSWRYEVGNQDHSFMLGVEAVDNIVNGAVELTLNYPDFVNGRQNTERRLVDGAQVFAKSKAQ

Target: the molecule itself
Assay: crystal structure
For B1, the “stoichiometry N” value was 4. With B2 the “stoichiometry N” value was 4. For B3, the “stoichiometry N” value was 4. With B4 the “stoichiometry N” value was 4.
